The values that follow come from patent US20240317858A1 (Adimab, published 2024).

Assay [1] has as its target T1, Human CD3 on CD3+ Jurkat cells (human, UniProt P07766 23-207).
T1 construct: whole, on cells; Target is the endogenous CD3 complex on cells; also called Human CD3+ Jurkat cells
The assay is described as follows: flow cytometry, 100 nM IgG. As to the method:
(§1) Specificity of the anti-CD3 antibodies for human CD3+ Jurkat cells and Cynomolgus monkey HSC-F cells was determined using a FACS cell binding assay. Briefly, cells were thawed and washed with cold PBSF buffer (PBS+0.1% BSA, pH 7.4). About 200,000 cells were aliquoted per well of a 96-well plate and pelleted by centrifugation (5 minutes at 500×g). The cells were washed and resuspended in 100 μl PBSF with CHO-produced anti-CD3 IgG antibody (100 nM). The mixture (cells+antibody) was incubated for 20 minutes on ice, then washed twice with PBSF. Cells were resuspended in 50 μl of propidium iodide (1:500 dilution) and anti-human IgG-RPE (1:100 dilution) prepared in PBSF, then incubated for 20 minutes on ice in the dark before cells were washed twice with PBSF. Binding was analyzed on FACS Canto II. Also shown are results using cells without CD3 [CHO-S cells, Jurkat CD3 knockout (CD3−) cells, and HEK cells] for comparison, including results with Jurkat CD3-cells combined with anti-CD3 antibody Fab fragments (100 nM).

Assay [2] concerns the target T2, Cynomolgus CD3 on HSC-F cells (cynomolgus, UniProt Q95LI5 22-198).
T2 construct: whole, on cells; Target is the endogenous CD3 complex on cells; also called Cyno CD3 HSC-F cells; Cyno CD3+ HSC-F cells
The assay is described as follows: flow cytometry, 100 nM IgG. As to the method: as §1

Assay [3] addresses T1, Human CD3 on CD3+ Jurkat cells. In words: flow cytometry, 100 nM IgG1, pH 7.4. The method, then:
(§2) Cell binding assays. CD3+ human Jurkat cells (ATCC) and CHO-S cells (Invitrogen/ThermoFisher) were thawed and washed with cold PBSF buffer, pH 7.4 (PBS+0.1% BSA, pH 7.4). About 200,000 cells were aliquoted per well of a 96-well plate (FACS Assay Plate VWR BD 353263) and pelleted by centrifugation (5 minutes at 500×g). The cells were washed with either PBSF pH 7.4 or PBSF pH 6.0 (PBS+0.1% BSA, pH 6.0), and then resuspended in 100 μl in either PBSF pH 7.4 or PBSF pH 6.0 with IgG1 antibody (100 nM) produced in yeast as described above or in CHO cells. The mixture (cells+antibody) was incubated for 20 minutes on ice, then washed twice with either PBSF pH 7.4 or PBSF pH 6.0. Cells were resuspended in 50 μl of propidium iodide (Roche; 1:500 dilution) and anti-human IgG-RPE (Southern Biotech; 1:100 dilution) prepared in either PBSF pH 7.4 or PBSF pH 6.0, then incubated for 20 minutes on ice in the dark before cells were washed twice with either PBSF pH 7.4 or PBSF pH 6.0. Binding was analyzed on FACS Canto II.
(§3) Anti-CD3 antibodies A001-A005, V002, V004, V007, V009, V010, V013, and V014-V019 were produced as IgG1s in CHO cells, and binding to human CD3+ Jurkat cells and cynomolgus CD3+ HSC-F cells at pH 7.4 was analyzed by flow cytometry as described in Example 2. NCB (Normalized Cell Binding) values were calculated based on control and sample MFI values as NCB={(Sample MFI)−(Secondary only MFI)}/(Secondary only MFI).

Assay [4] concerns the target T2, Cynomolgus CD3 on HSC-F cells. The assay is described as follows: flow cytometry, 100 nM IgG1, pH 7.4. As to the method: as §2, §3

Where a chain is given by its changes, count along the chain named.

T2 sequence (Q95LI5 22-198): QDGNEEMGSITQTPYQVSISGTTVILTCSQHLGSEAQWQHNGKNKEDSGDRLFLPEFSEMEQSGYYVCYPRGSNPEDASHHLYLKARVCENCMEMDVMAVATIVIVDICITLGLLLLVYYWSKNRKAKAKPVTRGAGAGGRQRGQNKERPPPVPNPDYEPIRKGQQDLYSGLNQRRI
T1 sequence (P07766 23-207): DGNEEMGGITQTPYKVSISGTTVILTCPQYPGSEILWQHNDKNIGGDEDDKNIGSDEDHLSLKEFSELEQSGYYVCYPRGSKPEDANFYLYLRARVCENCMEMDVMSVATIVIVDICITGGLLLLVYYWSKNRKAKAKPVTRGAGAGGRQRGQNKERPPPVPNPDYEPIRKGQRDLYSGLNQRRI

B1: Antibody No. A001 (ADI-26906) IgG1 (antibody, V domains shown)
VH: QVQLVQSGAEVKKPGASVKVSCKASGFNIKDYYMHWVRQAPGQRLEWMGWIDLENANTIYDAKFQGRVTITRDTSASTAYMELSSLRSEDTAVYYCARDAYGRYFYDVWGQGTLVTVSS
VL: DIVMTQSPDSLAVSLGERATINCKSSQSLLNARTGKNYLAWYQQKPGQPPKLLIYWASTRESGVPDRFSGSGSGTDFTLTISSLQAEDVAVYYCKQSYSRRTFGGGTKVEIK
notes: IgG1, CHO-produced
Consider B1, for which the MFI in assay [1] stood at 3150 MFI; in assay [2] it was 6050 MFI. Also, the “NCB (Normalized Cell Binding)” value turned out to be 289 in assay [3] and 400 in assay [4].

B2: Antibody No. V002 (ADI-67445) IgG1 (antibody, V domains shown)
VH: B1 VH with N57E, G66D, V108E
VL: B1 VL
notes: IgG1, CHO-produced
With B2, the MFI was 3040 MFI in assay [1] and 5960 MFI in assay [2]. Also, the “NCB (Normalized Cell Binding)” value in assay [3] was found to be 320; in assay [4], 388.

B3: Antibody No. V013 (ADI-70330) IgG1 (antibody, V domains shown)
VH: B1 VH with K30D, M48I, I59V, Y60D
VL: B1 VL with T5S, E61S, K95V, S99F
notes: IgG1, CHO-produced
Take B3: the results for the MFI in assay [1] and in assay [2] were 2950 MFI and 5740 MFI, respectively. Also, the “NCB (Normalized Cell Binding)” value in assay [3] was determined as 295; in assay [4], 374.

B4: Antibody No. V009 (ADI-70326) IgG1 (antibody, V domains shown)
VH: B1 VH with N28D, M48I, D52E, N57D, I59V
VL: B1 VL with T5S, E61S, K95V, S99F
notes: IgG1, CHO-produced
B4: the MFI was 3070 MFI in assay [1] and 6230 MFI in assay [2]. Besides, the “NCB (Normalized Cell Binding)” value worked out at 309 in assay [3] and 396 in assay [4].

B5: Antibody No. V007 (ADI-67450) IgG1 (antibody, V domains shown)
VH: B1 VH with K30D, Y60D
VL: B1 VL
notes: IgG1, CHO-produced
As for B5, the MFI in assay [1] stood at 2930 MFI; in assay [2], 5490 MFI. In addition, the entries for the “NCB (Normalized Cell Binding)” value in assay [3] and in assay [4] were 287 and 368, respectively.

B6: Antibody No. V010 (ADI-70327) IgG1 (antibody, V domains shown)
VH: B1 VH with N28D, M48I, D52E, A56D, N57D, I59V
VL: B1 VL with T5S, E61S, K95V, S99F
notes: IgG1, CHO-produced
Turning to B6, the figures for the MFI in assay [1] and in assay [2] were 2910 MFI and 5860 MFI, respectively. For the same molecule, the “NCB (Normalized Cell Binding)” value in assay [3] is 298; in assay [4] it was 378.

B7: Antibody No. A002 (ADI-50024) IgG1 (antibody, V domains shown)
VH: B1 VH with M48I, I59V
VL: B1 VL with T5S, E61S, K95V, S99F
notes: IgG1, CHO-produced
In the case of B7, the MFI was determined as 3410 MFI in assay [1] and 6310 MFI in assay [2]. For the same molecule, the “NCB (Normalized Cell Binding)” value in assay [3] was 366; in assay [4], 417.
